# In IntAct's records for PubMed 28258151:
# Target: cfah_human CFH (UniProt P08603)
# Sequence (P08603 whole entry): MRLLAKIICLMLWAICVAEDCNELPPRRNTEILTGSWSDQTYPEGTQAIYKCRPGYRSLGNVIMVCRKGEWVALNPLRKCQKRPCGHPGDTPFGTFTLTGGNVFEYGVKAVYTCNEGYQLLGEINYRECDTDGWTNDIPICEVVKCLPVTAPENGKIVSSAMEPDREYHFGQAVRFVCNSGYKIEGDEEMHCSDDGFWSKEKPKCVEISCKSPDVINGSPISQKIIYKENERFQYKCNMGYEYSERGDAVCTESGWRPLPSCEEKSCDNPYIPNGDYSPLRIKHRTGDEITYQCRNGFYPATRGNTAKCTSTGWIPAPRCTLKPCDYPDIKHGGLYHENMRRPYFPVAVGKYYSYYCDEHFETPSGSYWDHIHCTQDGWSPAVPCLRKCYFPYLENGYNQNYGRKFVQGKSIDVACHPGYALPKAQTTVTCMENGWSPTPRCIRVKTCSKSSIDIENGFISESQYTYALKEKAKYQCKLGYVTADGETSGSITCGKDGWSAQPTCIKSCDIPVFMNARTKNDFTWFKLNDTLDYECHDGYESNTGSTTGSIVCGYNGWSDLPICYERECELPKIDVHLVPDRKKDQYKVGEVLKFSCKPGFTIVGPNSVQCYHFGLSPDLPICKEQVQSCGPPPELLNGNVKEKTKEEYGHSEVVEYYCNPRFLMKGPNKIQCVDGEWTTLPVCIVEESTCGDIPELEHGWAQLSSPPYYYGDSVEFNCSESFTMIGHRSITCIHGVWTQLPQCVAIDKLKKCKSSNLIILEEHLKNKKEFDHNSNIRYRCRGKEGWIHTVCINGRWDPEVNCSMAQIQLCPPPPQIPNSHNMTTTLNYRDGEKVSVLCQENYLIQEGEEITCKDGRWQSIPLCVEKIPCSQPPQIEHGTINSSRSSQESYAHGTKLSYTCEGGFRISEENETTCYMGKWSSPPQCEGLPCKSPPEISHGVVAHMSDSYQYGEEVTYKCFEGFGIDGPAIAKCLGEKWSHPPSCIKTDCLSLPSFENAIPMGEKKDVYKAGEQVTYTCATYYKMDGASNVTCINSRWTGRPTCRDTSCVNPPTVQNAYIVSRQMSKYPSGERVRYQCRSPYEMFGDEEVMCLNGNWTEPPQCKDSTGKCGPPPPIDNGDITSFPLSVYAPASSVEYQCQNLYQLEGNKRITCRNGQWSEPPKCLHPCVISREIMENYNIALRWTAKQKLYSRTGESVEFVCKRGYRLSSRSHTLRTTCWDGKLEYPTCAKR
row,Substance,effect of a mutation on the interaction
1,"Serine-aspartate repeat-containing protein E (Staphylococcus aureus (strain Mu50 / ATCC 700699)), Q932F7 D334A",decreasing interaction
2,"Serine-aspartate repeat-containing protein E (Staphylococcus aureus (strain Mu50 / ATCC 700699)), Q932F7 D588A",disrupting interaction
3,"Serine-aspartate repeat-containing protein E (Staphylococcus aureus (strain Mu50 / ATCC 700699)), Q932F7 L335A",decreasing interaction
4,"Serine-aspartate repeat-containing protein E (Staphylococcus aureus (strain Mu50 / ATCC 700699)), Q932F7 Q419A",decreasing interaction
